# Experimental data taken from patent publication US20160024208A1.
# Substitutions are numbered along the chain they refer to.
# B1: H4H443B (antibody, V domains shown)
# VH: QVQLVESGGGLVQPGRSLRLSCAASGFTFDDYAMHWVRQVPGKGLEWVSGINWNSGSIGYADSVKGRFTISRDNAKNSLFLQMNSLRAEDTALYYCAKDIEYYDILTGYYSYYIMDVWGQGTTVTVSS
# VL: DIQMTQSPSFLSASVGDRVTITCWASQGISSYLAWYQQKPGKAPKLLIYASSTLQSGVPSRFSGSGSGTEFTLTISSLQPEDFATYYCQQFNSYPPTFGQGTKVEIKR
# B2: H4H382B (antibody, V domains shown)
# VH: EVQLVQSGGGVVQPGRSLRLSCEASGFTFSSYGMHWVRQAPGKGLEWVAVISYDGSNKHYTDSVKGRFTISRDNSKNTLYLQMNSLRAEDTAVYFCAQSRGYSYGLGYWGQGTLVTVSS
# VL: DIQMTQSPDSLAVSLGERATINCKSSQSVLSSSNNENYLVWYQQKPGQPPKLLIYWASTREPGVPDRFSGGGSGTDFTLTISSLQAEDVAVYYCQQYHSIPYTFGQGTKVEIKR
# B3: H4H471B (antibody, V domains shown)
# VH: EVQLVESGGGLVKPGGSLRLSCAASGVTFSDYYMTWIRQAPGKGLEWVSYISTDGRTIYYADSVKGRFTISRDNAKNSLYLQMNNLRAEDTAVYYCARGVDSDDYEDFYSYYDMDVWGQGTTVTVSS
# VL: DIQMTQSPSSLSASVGDRVTITCRASQGISNYLAWFQQKPGKAPKSLIYAASSLQGGVPSRFSGSGSGTDFTLTISSLQPEDFATYYCQQYNSYPLTFGGGTKVEIKR
# B4: H4H441B (antibody, V domains shown)
# VH: QVQLQQWGAGLLKPSETLSLTCAVYGGSFSGHYWTWIRQPPGKGLEWIGEINHRGNTNYNPSLKSRATISVDTSKNQFSLKLSSVTAADTAVYYCAREGSLAARLWFFDLWGRDTPVTVSS
# VL: DIQMTQSPSSLSASVGDRGTVTCRASQNIRTYLNWYQQKPGKAPKLLIYAASSLQSGVPSRFSGSGSGTDFTLTISSLQPEDFATYYCQQSYGTPYTFGQGTKVEIKR
# B5: H4H448B (antibody, V domains shown)
# VH: B1 VH with Q1E, E6Q, V40A, N52S, F80Y
# VL: B4 VL with Q3R, V21I, R30N, T31S, Q38L, Y49F, G93S, T94S, Y96F
# Key:
# [1] = target: full-length human Nav1.7 fused at its N-terminus to GFP, expressed in HEK293 cells (human) (UniProt Q15858); experiment: flow cytometry on Nav1.7-GFP-HEK293, antibody 3.3 nM
# [2] = target: full-length human Nav1.7 fused at its N-terminus to GFP, expressed in HEK293 cells (human) (UniProt Q15858); experiment: flow cytometry on Nav1.7-GFP-HEK293, antibody 3.3 nM preincubated with 3.3 uM EC 3-1 peptide as competitor
# [3] = target: full-length human Nav1.7 fused at its N-terminus to GFP, expressed in HEK293 cells (human) (UniProt Q15858); experiment: flow cytometry; % stained hNav1.7-GFP-HEK293 minus parental HEK293
# [4] = target: full-length human Nav1.7 fused at its N-terminus to GFP, expressed in HEK293 cells (human) (UniProt Q15858); experiment: cell-based or functional assay
# [5] = target: N-term Biotin Nav1.7 (3-3) peptide, mouse (mouse); experiment: ELISA on coated peptide
Binder,% Binding Nav1.7 (Stable Line) [1] [%],% Binding Nav1.7 + 1000x Peptide (Competition Binding) [2] [%],% Binding Nav1.7 [3] [%],"Current blocking (Average % inhibition), IonWorks Quattro, 223 nM antibody [4] [%]",OD450 [5] [od]
B1,10.1,5.1,10.1,–,–
B2,–,–,13,-6,–
B3,–,–,–,–,< 0.2
B4,–,–,–,81,–
B5,9.2,5.8,9.2,–,–
